Patent US20090214428A1 (HENRY M JACKSON FOUNDATION FOR THE ADVANCEMENT OF MILITARY …, published 2009)
Like-named read-outs stand apart in the source and are kept apart here.

Legend:
[1] = molecular target: T1, HeV G envelope glycoprotein (on effector cells expressing HeV F and G, or on infectious HeV) (Hendra virus, UniProt O89343 1-604); test: cell-based or functional assay
T1 sequence: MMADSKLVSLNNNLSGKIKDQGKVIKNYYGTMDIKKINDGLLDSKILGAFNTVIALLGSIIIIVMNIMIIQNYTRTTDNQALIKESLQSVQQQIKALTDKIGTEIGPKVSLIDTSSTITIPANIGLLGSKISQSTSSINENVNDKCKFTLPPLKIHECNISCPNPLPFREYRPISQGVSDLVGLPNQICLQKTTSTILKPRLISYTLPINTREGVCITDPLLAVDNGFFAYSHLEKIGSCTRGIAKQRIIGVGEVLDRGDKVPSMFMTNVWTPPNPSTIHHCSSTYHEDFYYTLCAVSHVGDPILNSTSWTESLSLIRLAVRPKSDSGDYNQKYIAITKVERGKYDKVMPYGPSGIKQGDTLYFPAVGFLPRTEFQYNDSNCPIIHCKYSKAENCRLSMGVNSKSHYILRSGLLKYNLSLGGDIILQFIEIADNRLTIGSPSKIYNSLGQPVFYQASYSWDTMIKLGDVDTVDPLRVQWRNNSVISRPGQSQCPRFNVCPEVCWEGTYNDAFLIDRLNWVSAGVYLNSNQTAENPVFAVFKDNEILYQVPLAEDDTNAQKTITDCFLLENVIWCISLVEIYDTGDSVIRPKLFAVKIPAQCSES

[2] = molecular target: T2, soluble Hendra virus G glycoprotein (sG) (Hendra virus, UniProt O89343 71-604); test: SPR (Biacore 1000), sG immobilised on CM5, Fab injected, 25 C, 1:1 Langmuir fit
T2 sequence: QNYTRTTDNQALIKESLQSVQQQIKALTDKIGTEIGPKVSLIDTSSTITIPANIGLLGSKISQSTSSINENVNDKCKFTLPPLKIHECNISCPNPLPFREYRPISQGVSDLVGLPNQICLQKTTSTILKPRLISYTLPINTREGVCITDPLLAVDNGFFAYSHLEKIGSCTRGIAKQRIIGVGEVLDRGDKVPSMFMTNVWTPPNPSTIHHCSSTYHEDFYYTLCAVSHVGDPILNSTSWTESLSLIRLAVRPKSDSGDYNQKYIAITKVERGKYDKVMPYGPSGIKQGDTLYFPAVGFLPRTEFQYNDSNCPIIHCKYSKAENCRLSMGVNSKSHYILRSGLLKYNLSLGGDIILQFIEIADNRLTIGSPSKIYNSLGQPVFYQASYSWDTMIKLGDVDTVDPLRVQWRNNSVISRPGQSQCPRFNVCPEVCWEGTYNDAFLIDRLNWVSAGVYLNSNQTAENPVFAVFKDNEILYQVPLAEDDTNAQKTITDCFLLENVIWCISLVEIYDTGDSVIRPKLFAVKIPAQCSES

[3] = molecular target: T2, soluble Hendra virus G glycoprotein (sG); test: ELISA, purified soluble Fab on coated sG
[4] = molecular target: T2, soluble Hendra virus G glycoprotein (sG); test: SPR (Biacore); upper end of the range told of the group, tied to m103 by Table 5
[5] = molecular target: T2, soluble Hendra virus G glycoprotein (sG)

| Binder | Kd [2] [nM] | koff [2] [s⁻¹] | kon [2] [M⁻¹ s⁻¹] | A450 [3] [A450] | further results |
| --- | --- | --- | --- | --- | --- |
| Fab m101 (Fab, V domains shown) VH: QVQLVQSGAEVKKPGASVKVSCKASGGTFSSYAISWVRQAPGQGLEWMGGIIPIFGTANYAQKFQGRVTITADESTSTAYMELSSLRSGDTAVYYCARDPGGYSYGPYYYYYGMDVWGQGTTVTVSS VL: DIQMTQSPSSVSASVGDRVTITCRASQGIGPWLAWYQQKPGKAPKFLIYRASTLQSGVPSRFSGSGSGTDFTLTISSLQPEDFATYYCQQAHSFPFTFGPGTKVDIKR | 28 | 0.0035 | 130000 | 1 | IC50 of HeV Env-mediated cell fusion, reporter gene assay, PCI-13 target cells [1]: 38 µg/mL |
| IgG1 m101 (antibody, V domains shown) VH: QVQLVQSGAEVKKPGASVKVSCKASGGTFSSYAISWVRQAPGQGLEWMGGIIPIFGTANYAQKFQGRVTITADESTSTAYMELSSLRSGDTAVYYCARDPGGYSYGPYYYYYGMDVWGQGTTVTVSS VL: DIQMTQSPSSVSASVGDRVTITCRASQGIGPWLAWYQQKPGKAPKFLIYRASTLQSGVPSRFSGSGSGTDFTLTISSLQPEDFATYYCQQAHSFPFTFGPGTKVDIKR | – | – | – | – | IC50 of HeV Env-mediated cell fusion, reporter gene assay, PCI-13 target cells [1]: 1.2 µg/mL |
| Fab m110 (Fab, V domains shown) VH: EVQLVQSGGGLVQPGRSLRLSCAASGFTFDDYAMHWVRQAPGKGLEWVSAISGSGGSTYYADSVKGRFTISRDNSKNTLYLQMNSLRAEDTAVYYCASEGLPETDDAFDIWGQGTMVTVSS VL: DVVMTQSPLSLPVTPGEPASISCRSSQSLLYSDGYNYLDWYLQKPGQSPQLLIYLGSRRASGVPDRFSGSGSGTDFTLKINTVEAEDVGVYYCMQGVEIPFTFGPGTKVEIKR | – | – | – | 0 | – |
| Fab m111 (Fab, V domains shown) VH: QVQLVQSGAEVKKPGATVKISCKVSGYTFTDYYMHWVQQAPGKGLEWMGLVDPEDGETIYAEKFQGRVTITADTSTDTAYMELSSLRSEDTAVYYCATEGADYWGQGTLVTVSS VL: DVVMTQSPLSLPVALGQPASISCRSSQSLVHSDGNTYLNWFQQRPGQSPRRLLYKVSNRESGVPDRFSGSGSGSDFTLKISRVEAEDVGIYYCMQGTHWPPITFGQGTRLEIKR | – | – | – | 0 | – |
| Fab m112 (Fab, V domains shown) VH: QVQLVQSGAEVKKPGATVKISCKVSGYTFTDYYMHWVQQAPGKGLEWMGLVDPEDGETIYAQKFQGRVTITADTSTNTAYMELSSLRSEDTAVYYCATDGADYWDQGTLGTVST VL: QSVLTQPPSVSGAPGQTVTISCTGSSSNIGGDSDVHWYQQLPGSAPKLLIYGNRNRPSGVPDRFSGSRSGTSASLAVIGVQADDEADYYCQCYDSSLNGYVFGPGTKVIVL | – | – | – | 0.4 | – |
| Fab m113 (Fab, V domains shown) VH: QVQLQQSGAEVKKPGSSVKVSCKASGGTFSSYAISWVRQAPGQGLEWMGWTNPNSGGTNYAQKLQGRVTMTTDTSTSTAYMELRSLRSDDTAVYYCANYKLQSDAFDIWGQGTMVTVSS VL: DIQMTQSPSSLSASVGDRVTITCRASQDIGNFLVWFQQKPGKAPKSLIYAASRLQSGVPSRFSGSGSGTDFTLTISSLQPEDFATYYCQHYKSYPLTFGGGTKVEIKR | – | – | – | 0.1 | – |
| Fab m115 (Fab, V domains shown) VH: QVQLQQSGAEVKKPGSSVKVSCKASGGTFRSYAISWVRQAPGQGLEWMGGIIPIFGTANYAQKFQGRVTITADESTSTAYMELSSLRSEDTAVYYCARGSQSYDHYYYYGMDVWGQGTTVTVSS VL: QSALTQPASVSGSPGQSITISCTGTSSDVGGYNYVSWYQQHPGKAPKLMIFDVSNRPSGVSNRLSGSKSGNTASLTISGLQAEDEADYYCSSYTSNTVVFGGGTKLTVL | – | – | – | 0.4 | – |
| Fab m116 (Fab, V domains shown) VH: EVQLVQSGAEVKKPGSSVKVSCKASGGAFSSYAISWVRQAPGQGLEWMGGIIPIFGTANYAQKFQGRVTITADESTSTAYMELSSLRSEDTAVYYCARDSAGLGAWGQGTLVAVSS VL: DIQMTQSPSSLSASVGDRVTITCRASQGISSALAWYQQKPGKAPKLLIYDASSLESGVPSRFSGSGSGTDFTLTISSLQPEDFATYYCQQFNSYPLTFGQGTRLEIKR | – | – | – | 0.3 | – |
| Fab m117 (Fab, V domains shown) VH: QITLKESGPTLVKPTQTLTLTCTFSGFSLSTSGVGVGWIRQPPGKALEWLALIYWDDDKRYSPSLKSRLTITKDTSKNQVVLTMTNMDPVDTATYYCAHRESGPEFFQHWGQGTLVTVSS VL: DVVMTQSPLSLPVTLGQPASISCNSSQSLVYSNGITYLNWFHQRPGQSPRRLIYQVSNWDSEVPDRFSGSGSATDFTLKISRVEADDVGIYYCMQGTHWPPTFGQGTRLEIKR | – | – | – | 0 | – |
| Fab m103 (Fab, V domains shown) VH: EVQLVESGGGLIQPGGSLRLSCAASGFTVSSNYMSWVRQAPGKGLEWVSVIYSGGSTYYADSVKGRFTISRDNSKNTLYLQMNSLRAEDTAVYYCARDSRYHDAFDIWGQGTMVTVSS VL: not shown | – | – | – | 0.8 | Kd [4]: 1000 nM; Kd [5]: 1800 nM |
| Fab m104 (Fab, V domains shown) VH: not shown VL: DVVMTQSPLSLSVTAGEPASISCRSSQSLLHSNGHIYLDWYLQKPGQSPQLLIYMASNRASGVPDRFSGSGSGTDFTLRINRVETEDVGIYYCMQSLHTTRTFGQGTKVEIKR | 600 | 0.0016 | 3000 | 0.7 | – |
| Fab m105 (Fab, V domains shown) VH: QVQLVQSGGGVVQPGRSLRLSCAASGFTFSSYAMHWVRQAPGKGLEWVAVISYDGSNKYYADSVKGRFTISRDNSKNTLYLQMNSLRAEDTAVYYCARVGGITGTADAFDIWGQGTMVTVSS VL: not shown | 69 | 0.0051 | 74000 | 0.9 | – |
| Fab m106 (Fab, V domains shown) VH: QVQLQQSGAEVKKPGSSVKVSCKASGGTFSSYAISWVRQAPGQGLEWMGGIIPIFGTANYAQKFQGRVTITADKSTSTAYMELSSLRSEDTAVYYCARDQLAGYYYDSSGYHYYYYGMDVWGQGTTVTVSS VL: not shown | 54 | 0.0033 | 62000 | 1.6 | – |
| Fab m107 (Fab, V domains shown) VH: EVQLVQSGAEVKKPGASVKVSCKASGYTFTGYYMHWVRQAPGQGLEWMGIINPSGGSTSYAQKFQGRVTMTRDTSTSTVYMELSSLRSEDTAVYYCARDHVHGPDAFDIWGQGTMVTVSS VL: not shown | 78 | 0.0022 | ~30000 | 0.6 | – |
| Fab m108 (Fab, V domains shown) VH: EVQLVESGGGLVKPGGSLRLSCAASGFTFSDYYMSWIRQAPGKGLEWVSYISSSGSTIYYADSVKGRFTISRDNAKNSLYLQMNSLRAEDTAVYYCARVGGAFDIWGQGTMVTVSS VL: NFMLTQPHSVSGSPGKTVTISCTRSSGSIASNYVQWYRQSPGSAPTTVIYEGYQRPSGVPDRFSGSIDSSSNSASLTISGLETEDEADYYCQSYDATNHQVVFGGGTKLTVL | – | – | – | 0.5 | – |
| Fab m109 (Fab, V domains shown) VH: QMQLQQWGAGLLKPSETLSLTCAVYGGSFSGYYWSWIRQPPGKGLEWIGEINHSGSTNYNPSLKSRVTISVDTSKNQFSLKLSSVTAADTAVYYCARGWFRDWYFDLWGRGTLVTVSS VL: DIQMTQSPSSLSASVGDRVTITCRASQDIRNDLGWYQQRPGKAPKLLIYAASSLQSGVPSRFSGSGSGTDFTLTISSLQPEDSATYFCLQDYQYPWTFGQGTKVEIKR | – | – | – | 0 | – |
